Measured values published in US20220119536A1.

Target: human VEGF-A (human) (UniProt P15692)
Experiment: cell-based or functional assay

Sequence of human VEGF-A (human) (P15692 other isoform, or with tags, fused parts or gaps limits assumed): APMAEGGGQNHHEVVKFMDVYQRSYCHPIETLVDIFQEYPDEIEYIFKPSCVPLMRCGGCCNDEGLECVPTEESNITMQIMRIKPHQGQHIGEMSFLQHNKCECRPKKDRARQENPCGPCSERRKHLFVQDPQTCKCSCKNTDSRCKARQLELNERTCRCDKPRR
Sequence of EYLEA® (aflibercept) (Fc fusion) (chain): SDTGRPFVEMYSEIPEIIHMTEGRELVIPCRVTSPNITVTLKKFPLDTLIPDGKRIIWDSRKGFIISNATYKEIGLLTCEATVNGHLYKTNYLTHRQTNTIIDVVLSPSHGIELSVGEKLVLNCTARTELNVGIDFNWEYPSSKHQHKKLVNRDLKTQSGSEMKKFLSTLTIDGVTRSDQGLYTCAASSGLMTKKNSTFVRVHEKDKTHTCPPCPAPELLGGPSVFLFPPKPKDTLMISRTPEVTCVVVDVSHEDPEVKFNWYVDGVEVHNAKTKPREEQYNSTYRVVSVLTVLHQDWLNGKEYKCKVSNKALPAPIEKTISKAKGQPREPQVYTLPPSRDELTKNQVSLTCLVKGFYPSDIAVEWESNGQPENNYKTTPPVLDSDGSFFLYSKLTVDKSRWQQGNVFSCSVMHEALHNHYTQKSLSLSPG

ERK1/2 phosphorylation: Bottom plateau (AlphaLISA counts) (AlphaLISA counts): 21700
ERK1/2 phosphorylation: Top plateau (AlphaLISA counts) (AlphaLISA counts): 109000
HRMEC proliferation Delta (area under the curve vs. basal): Bottom plateau (arbitrary units) (arbitrary units): 13.3
HRMEC proliferation Delta (area under the curve vs. basal): IC50 (pM): 171 pM
HRMEC proliferation Delta (area under the curve vs. basal): LogIC50: -9.77
HRMEC proliferation Delta (area under the curve vs. basal): Top plateau (arbitrary units) (arbitrary units): 129
IC50, inhibition of VEGF-induced p38 MAPK phosphorylation: 0.74 nM
Src phosphorylation (Y419): Bottom plateau (AlphaLISA counts) (AlphaLISA counts): 2210
Src phosphorylation (Y419): IC50: 0.933 nM
Src phosphorylation (Y419): LogIC50: -9.37
Src phosphorylation (Y419): Top plateau (AlphaLISA counts) (AlphaLISA counts): 3420
concentration for full inhibition of VEGF-induced HRMEC proliferation: > 16 nM
p38-MAPK phosphorylation (T180/Y182): Bottom plateau (AlphaLISA counts) (AlphaLISA counts): 8890
p38-MAPK phosphorylation (T180/Y182): IC50: 0.748 nM
p38-MAPK phosphorylation (T180/Y182): LogIC50: -9.13
p38-MAPK phosphorylation (T180/Y182): Top plateau (AlphaLISA counts) (AlphaLISA counts): 23100
Substance: EYLEA® (aflibercept) (Fc fusion)
